Data reported in US20230355784A1.
Square brackets hold non-standard residues; d marks the D form. Ends that are not written are not given here.

target: mAB anti V5 (Thermo Scientific) (mouse); assay: 1 ug/ml mouse anti V5 with increasing SADC, capture on streptavidin plate, bound IgG by ELISA

Binder	EC50 [µg/mL]
IPNPLLGLDGGSGDYKDDDDKGK[BiotinAca]GC (peptide, part only; not given: transferrin scaffold, not shown: large carriers, also: bound to transferrin scaffold) [SADC with transferrin scaffold carrying the tagged V5 peptide]	0.007
IPNPLLGLDGGSGDYKDDDDKGK[BiotinAca]GC (peptide, part only; not given: albumin scaffold, not shown: large carriers, also: bound to albumin scaffold) [SADC with albumin scaffold carrying the tagged V5 peptide]	0.0279
IPNPLLGLDGGSGDYKDDDDKGK[BiotinAca]GC (peptide, part only; not given: haptoglobin scaffold, part only, also: bound to haptoglobin scaffold) [SADC with haptoglobin scaffold carrying the tagged V5 peptide]	0.0555
